The source of these data is US20190359687A1 (Bayer, published 2019).

Changes are numbered by the printed parent chain. Names and notes keep the numbering of the source.

To fix the notation:
T1: recombinant human glycophorin A ectodomain protein (human, UniProt P02724 20-91)
T1 construct: 72 amino acids of the extracellular region; also called Hu-rec GPA
T1 sequence: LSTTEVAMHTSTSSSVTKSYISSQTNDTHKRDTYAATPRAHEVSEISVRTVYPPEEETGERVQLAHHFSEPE

T2: native human glycophorin A protein (human, UniProt P02724 20-150)
T2 construct: mature; also called Hu-nat GPA
T2 sequence (looked up): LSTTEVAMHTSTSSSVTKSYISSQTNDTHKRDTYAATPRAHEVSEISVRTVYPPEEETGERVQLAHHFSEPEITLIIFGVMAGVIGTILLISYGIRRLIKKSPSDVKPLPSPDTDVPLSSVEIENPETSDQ

T3: human glycophorin A on human red blood cells or red blood cell membranes (human, UniProt P02724 20-150)
T3 construct: whole, on cells; also called hRBC; human RBC membranes
T3 sequence (looked up): T2 sequence (looked up)

B1: TPP-5675, Hu6C12-24 Fab variant VH: (I48M, L70M, T72R) (Fab, V domains shown)
VH: EVQLVQSGAEVKKPGASVKVSCKASGYTFTTYTIHWVRQAPGQGLEWMGYINPSSDYTRYNPKFKDRVTMTRDKSTSTAYMELRSLRSDDTAVYYCQTGTRDYWGQGTTVTVSS
VL: DIQLTQSPSFLSASVGDRVTITCSAASSVSYIYWFQQKPGKAPKLLIYSTSTLPSGVPSRFSGSGSGTEYTLTISSLQPEDFATYYCHQRNSFPFTFGQGTKLEIKR
notes: Built on the parental Fab TPP-4935
B2: TPP-5842, Hu6C12-24 Fab variant VL: (S24R, A26S, S49A, P54Q, F95Y); VH: (D66G, L70M, T72R) (Fab, V domains shown)
VH: B1 VH with M48I, D66G
VL: B1 VL with S24R, A26S, S49A, P54Q, F95Y
notes: as for B1
B3: TPP-5699, Hu6C12-24 Fab variant VL: (S49A, P54Q) (Fab, V domains shown)
VH: B1 VH with M48I, M70L, R72T
VL: B1 VL with S49A, P54Q
notes: as for B1
B4: TPP-5678, Hu6C12-24 Fab variant VH: (I48M, D66G, L70M, T72R) (Fab, V domains shown)
VH: B1 VH with D66G
VL: B1 VL
notes: as for B1
B5: TPP-5698, Hu6C12-24 Fab variant VL: (S24R, A26S) (Fab, V domains shown)
VH: B1 VH with M48I, M70L, R72T
VL: B1 VL with S24R, A26S
notes: as for B1
B6: TPP-5840, Hu6C12-24 Fab variant VL: (S24R, A26S, S49A, P54Q, F95Y); VH: (L70M, T72R) (Fab, V domains shown)
VH: B1 VH with M48I
VL: B1 VL with S24R, A26S, S49A, P54Q, F95Y
notes: as for B1
B7: TPP-5837, Hu6C12-24 Fab variant VL: (S24R, A26S, S49A, P54Q, F95Y); VH: (I48M, D66G) (Fab, V domains shown)
VH: B1 VH with D66G, M70L, R72T
VL: B1 VL with S24R, A26S, S49A, P54Q, F95Y
notes: as for B1
B8: TPP-5701, Hu6C12-24 Fab variant VL: (S49A, P54Q, F95Y) (Fab, V domains shown)
VH: B1 VH with M48I, M70L, R72T
VL: B1 VL with S49A, P54Q, F95Y
notes: as for B1
B9: TPP-5704, Hu6C12-24 Fab variant VL: (N91D) (Fab, V domains shown)
VH: B1 VH with M48I, M70L, R72T
VL: B1 VL with N91D
notes: as for B1
B10: TPP-5703, Hu6C12-24 Fab variant VL: (N91S) (Fab, V domains shown)
VH: B1 VH with M48I, M70L, R72T
VL: B1 VL with N91S
notes: as for B1
B11: TPP-5838, Hu6C12-24 Fab variant VL: (S24R, A26S, S49A, P54Q, F95Y); VH: (I48M, D66G, L70M) (Fab, V domains shown)
VH: B1 VH with D66G, R72T
VL: B1 VL with S24R, A26S, S49A, P54Q, F95Y
notes: as for B1
B12: TPP-5836, Hu6C12-24 Fab variant VL: (S24R, A26S, S49A, P54Q, F95Y); VH: (I48M, L70M, T72R) (Fab, V domains shown)
VH: B1 VH
VL: B1 VL with S24R, A26S, S49A, P54Q, F95Y
notes: as for B1
B13: TPP-5697, Hu6C12-24 Fab variant VH: (D66G, L70M, T72R) (Fab, V domains shown)
VH: B1 VH with M48I, D66G
VL: B1 VL
notes: as for B1
B14: TPP-5700, Hu6C12-24 Fab variant VL: (S24R, A26S, F95Y) (Fab, V domains shown)
VH: B1 VH with M48I, M70L, R72T
VL: B1 VL with S24R, A26S, F95Y
notes: as for B1

In the first test the target is T1, recombinant human glycophorin A …. The test can be described thus: ELISA, Fab on coated recombinant human GPA ectodomain. A general note: ELISA stands for enzyme-linked immunosorbent assay.
Regarding B1, the “binding in ELISA relative to parental Fab” value was 1.1 relative to parental Fab.
On the same count and under the same terms, the figure for B2 is 4.7 relative to parental Fab.
As to B3, the “binding in ELISA relative to parental Fab” value is 3.2 relative to parental Fab.
The same measure, in the same setting: the figure for B4 is 1.1 relative to parental Fab; for B5 it is 1.7 relative to parental Fab; for B6 it is 4.2 relative to parental Fab.
On the same count and under the same terms, the figure for B7 is 4.5 relative to parental Fab; for B8 it is 3.9 relative to parental Fab; for B9 it is 1.1 relative to parental Fab.
In the case of B10, the “binding in ELISA relative to parental Fab” value is 1.1 relative to parental Fab.
Still for that read-out and setting: for B11 the value was 4.7 relative to parental Fab; for B12, 4.1 relative to parental Fab.
The same measure, in the same setting: for B13 the value was 1.3 relative to parental Fab.
Still for that read-out and setting: for B14 the value was 2.4 relative to parental Fab.

For a further test, the target named is T2, native human glycophorin A protein. The test can be described thus: ELISA, Fab on coated native human GPA.
As to B1, the “binding in ELISA relative to parental Fab” value is 0.8 relative to parental Fab.
B2: the “binding in ELISA relative to parental Fab” value was 5.9 relative to parental Fab.
As for B3, the “binding in ELISA relative to parental Fab” value is 3.8 relative to parental Fab.
The same measure, in the same setting: for B4 the value was 1.2 relative to parental Fab.
Still for that read-out and setting: the figure for B5 is 1.6 relative to parental Fab; for B6 it is 5.3 relative to parental Fab; for B7 it is 5.2 relative to parental Fab.
On to B8, for which the “binding in ELISA relative to parental Fab” value is 4.6 relative to parental Fab.
The same measure, in the same setting: the figure for B9 is 1 relative to parental Fab; for B10 it is 2.1 relative to parental Fab; for B11 it is 5.6 relative to parental Fab.
On the same count and under the same terms, for B12 the value was 5.1 relative to parental Fab.
For B13, the “binding in ELISA relative to parental Fab” value is 1.2 relative to parental Fab.
As to B14, the “binding in ELISA relative to parental Fab” value was 2.5 relative to parental Fab.

For the next test, the target named is T4, Cynomolgus monkey recombinant glycophorin A ectodomain (Cynomolgus monkey).
T4 construct: extracellular domain
The test can be described thus: ELISA, Fab on coated recombinant cyno GPA ectodomain.
As to B1, the “binding in ELISA relative to parental Fab” value was 1 relative to parental Fab.
On the same count and under the same terms, for B2 the value was 1.1 relative to parental Fab.
The same measure, in the same setting: the figure for B3 is 0.8 relative to parental Fab; for B4 it is 1.2 relative to parental Fab; for B5 it is 1 relative to parental Fab.
Regarding B6, the “binding in ELISA relative to parental Fab” value is 1 relative to parental Fab.
On the same count and under the same terms, for B7 the value was 1.1 relative to parental Fab; for B8, 1 relative to parental Fab.
Same read-out and setting: for B9 the value was 1 relative to parental Fab; for B10, 0.9 relative to parental Fab.
For the molecule B11, the “binding in ELISA relative to parental Fab” value is 1.1 relative to parental Fab.
In the case of B12, the “binding in ELISA relative to parental Fab” value was 1 relative to parental Fab.
Still for that read-out and setting: the figure for B13 is 1.2 relative to parental Fab; for B14 it is 1.2 relative to parental Fab.

For the next test, the target named is T3, human glycophorin A on human red blood …. The test can be described thus: ELISA, Fab on coated human RBC membranes.
Method: These membranes are prepared by first isolating red blood cells from citrated whole blood. Citrated whole blood is layered on to Ficol and centrifuged at low speed for 20 minutes to pellet the red blood cells. The supernatant containing plasma and other blood cells is discarded and the red blood cell pellet is subsequently washed 3 times in 10 cell volumes of phosphate buffered saline (PBS). A 10 ml pellet of purified red blood cells is resuspended in 30 ml of cold low osmorality 20 mM phosphate buffer (pH7.4) and incubated for 30 mins to break open the RBC. After Centrifugation at 10,000 rpm for 30 min at 5° C. the hemoglobin containing supernatant is discarded. To the membrane pellet another 30 ml of 20 mM phosphate buffer is added and the sample centrifuged again at 10,000 rpm for 30 min at 5° C. to pellet the membrane fraction. This wash and centrifugation step is repeated another 4 times. The red blood cell membranes are then resuspended in 20 mL of PBS to achieve an equivalent of approximately 2.5E9 cells/mL and stored frozen at −20° C. Binding of antibodies to RBC ghost can be measured by ELISA in which the RBC ghost suspension (5×10⁶ in 100 ul PBS) was added to each well of flat bottom 96-well ELISA microtiter plates (2HB, Immunolon) and the plates incubated overnight at 4° C. The plates were blocked with Starting blocking buffer (Thermo Fisher) for 2 hours at room temperature (RT). Antibodies or other test molecules were added to each well and incubated for 1.5 hours at RT. After 4 washes 100 ul of an appropriate detection antibody was added to each well and incubated for 1 hour at RT. After 4 washes the detection antibody was measured using appropriate detection reagents.
Take B1: the “binding in ELISA relative to parental Fab” value was 0.7 relative to parental Fab.
As to B2, the “binding in ELISA relative to parental Fab” value is 7 relative to parental Fab.
On the same count and under the same terms, the figure for B3 is 3.1 relative to parental Fab.
The same measure, in the same setting: the figure for B4 is 0.8 relative to parental Fab.
The same measure, in the same setting: the figure for B5 is 0.6 relative to parental Fab; for B6 it is 6 relative to parental Fab.
Consider B7, for which the “binding in ELISA relative to parental Fab” value was 9.1 relative to parental Fab.
Still for that read-out and setting: the figure for B8 is 4.7 relative to parental Fab.
Still for that read-out and setting: the figure for B9 is 0.9 relative to parental Fab.
Still for that read-out and setting: the figure for B10 is 0.7 relative to parental Fab; for B11 it is 9.3 relative to parental Fab; for B12 it is 4.7 relative to parental Fab.
Regarding B13, the “binding in ELISA relative to parental Fab” value is 1.1 relative to parental Fab.
On the same count and under the same terms, the figure for B14 is 2.5 relative to parental Fab.

For the next test the target is unchanged. The test can be described thus: SPR (Biacore), Fab over human RBC membranes, 1:1 fit.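 Note: human RBC membrane preparations captured on an L1 sensor surface, with antibody passed over them as analyte.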 Background: In SPR one partner is held on a chip, and binding of the other changes the refractive index at the surface.
Method: Kinetic analysis of the antibody binding to human red blood cell membranes was also performed using surface plasmon resonance (SPR) using a Biacore instrument. In this assay membranes prepared from human red blood cells were attached to a L1 sensor matrix and antibodies were flowed over the RBC membranes.
One may read the Kd as a measure of binding affinity in units of concentration. The koff is the first-order rate constant of dissociation. By kon is commonly meant the rate constant with which the complex forms. Consider B1, for which the Kd worked out at 87 nM, the koff turned out to be 0.036 s⁻¹ and the kon came to 420000 M⁻¹ s⁻¹.
For B2 the same measures were 3.9 nM, 0.0059 s⁻¹ and 1.5e+06 M⁻¹ s⁻¹.
Regarding B4, the Kd was 37 nM, the koff turned out to be 0.041 s⁻¹ and the kon amounted to 1.1e+06 M⁻¹ s⁻¹.
For B6 the same measures were 4.1 nM, 0.0046 s⁻¹ and 1.1e+06 M⁻¹ s⁻¹.
For B11 the same measures were 3.1 nM, 0.004 s⁻¹ and 1.3e+06 M⁻¹ s⁻¹.
For B12 the same measures were 3.6 nM, 0.0042 s⁻¹ and 1.2e+06 M⁻¹ s⁻¹.
